The values below come from US7279304B2, “Methods for preparation of macrocyclic molecules and macrocyclic molecules prepared thereby” (President and Fellows of Harvard College, priority 2000, dated 2007).

What all share (assay): purified protein, by the assay type
Holding throughout (type): biochemical

Substrate in series [1]: CC(=O)NCCSC(=O)[C@H](CC(C)C)NC(=O)[C@H](CCCN)NC(=O)[C@@H](Cc1ccccc1)NC(=O)[C@H](CC(C)C)NC(=O)[C@H](CCCN)NC(=O)[C@H](N)Cc1ccccc1
To be noted: other: Table 2; cyclization of peptide-SNAC substrates of 6-14 amino acids. The procedure:
(§1) Macrocyclization reactions were carried out in 25 mM MOPS, pH 7.0 in a total volume of 400 μL. Reactions were initiated by addition of TycC TE and quenched at various time points by the addition of 25 μL 1.7% TFA/water, flash frozen in liquid nitrogen and stored at −80° C. (for Ex. 13, reactions were quenched by the addition of sodium phosphate, pH 5.3, to 100 mM). The reactions were then thawed, 85 μL acetonitrile added, and analyzed by analytical HPLC with monitoring at 220 nm (20% to 80% acetonitrile in 0.1% TFA/water, or in 25 mM potassium phosphate, pH 5.3 for Ex. 13, over 35 minutes, Vydac protein and peptide C18 column). Initial rates were calculated using 1 minute time points. Peptide-SNAC and reaction product concentrations were determined for all Tyr-containing peptides based on the estimated extinction coefficient ε (280 nm)=1,280 M^−1 cm^−1, which agrees with the experimentally determined ε (280 nm) of Ex. 1. For peptide-SNACs not containing Tyr, ε (220 nm) was determined experimentally, and concentrations of corresponding cyclic products determined by assuming equal ε (220 nm) values for the peptide-SNAC and cyclic product.

Substrate in series [2]: CC(=O)NCCSC(=O)[C@H](CC(C)C)NC(=O)[C@H](CCCN)NC(=O)[C@@H](NC(=O)[C@H](C)NC(=O)[C@H](CCC(N)=O)NC(=O)[C@H](CC(N)=O)NC(=O)[C@@H](Cc1ccccc1)NC(=O)[C@H](Cc1ccccc1)NC(=O)[C@@H]1CCCN1C(=O)[C@H](N)Cc1ccccc1)C(C)C
To be noted: other: Table 1; macrocyclization of peptide-SNAC substrate; 25 mM MOPS, pH 7.0. How it is done: as §1

Substrate in series [3]: CC(=O)NCCSC(=O)[C@H](CC(C)C)NC(=O)[C@H](CCCN)NC(=O)[C@@H](NC(=O)[C@H](Cc1ccc(O)cc1)NC(=O)[C@H](CCC(N)=O)NC(=O)[C@H](C)NC(=O)[C@@H](Cc1ccccc1)NC(=O)[C@H](Cc1ccccc1)NC(=O)[C@@H]1CCCN1C(=O)[C@H](N)Cc1ccccc1)C(C)C
To be noted: other: Table 1; macrocyclization of peptide-SNAC substrate; 25 mM MOPS, pH 7.0. How it is done:
as §1

Substrate in series [4]: CC(=O)NCCSC(=O)[C@H](CC(C)C)NC(=O)[C@H](CCCN)NC(=O)[C@@H](NC(=O)[C@H](Cc1ccc(O)cc1)NC(=O)[C@H](CCC(N)=O)NC(=O)[C@H](CC(N)=O)NC(=O)[C@@H](Cc1ccccc1)NC(=O)[C@H](Cc1ccccc1)NC(=O)[C@H](C)NC(=O)[C@H](N)Cc1ccccc1)C(C)C
To be noted: other: Table 1; macrocyclization of peptide-SNAC substrate; 25 mM MOPS, pH 7.0. How it is done:
as §1

Substrate in series [5]: CC(=O)NCCSC(=O)[C@H](CC(C)C)NC(=O)[C@H](CCCN)NC(=O)[C@H](C)NC(=O)[C@H](Cc1ccc(O)cc1)NC(=O)[C@H](CCC(N)=O)NC(=O)[C@H](CC(N)=O)NC(=O)[C@@H](Cc1ccccc1)NC(=O)[C@H](Cc1ccccc1)NC(=O)[C@@H]1CCCN1C(=O)[C@H](N)Cc1ccccc1
To be noted: other: Table 1; macrocyclization of peptide-SNAC substrate; 25 mM MOPS, pH 7.0. How it is done:
as §1

B1: TycC TE (excised TE domain protein from the tyrocidine NRPS) (Brevibacillus parabrevis) (protein)
chain: FESRYGTAILLNQETARNVFCFTPIGAQSVYYQKLAAEIQGVSLYSFDFIQDDNRMEQYIAAITAIDPSGPYTLMGYSSGGNLAFEVAKELEERGYGVTDIILFDSYWKDKAIERTVAETENDIAQLFAEIGENTEMFNMTQEDFQLYAANEFVKQSFVRKTVSYVMFHNNLVNTGMTTAAIHLIQSELEADEEAPVAAKWNESAWANATQRLLTYSGHGIHSRMLAGDYASQNASILQNILQELFILK
notes: excised TE domain protein from the tyrocidine NRPS (TycC TE); made in house
For the protein B1, the Michaelis-Menten constant (Km) (as a rule, the substrate concentration at which the rate is half of its maximum) in series [1] stood at 4 µM; in series [2] it was 15 µM; in series [3], 6 µM; in series [4], 3 µM; in series [5] it was 9 µM. Besides, the catalytic constant (kcat) (in general, the maximal rate divided by the concentration of active sites) in series [1] stood at 0.5 s⁻¹.
